Assay results reported in article PMC3786575.

Molecular target: USF-1-Flag (UniProt P22415)
Chain of UniProt P22415 (P22415 whole entry): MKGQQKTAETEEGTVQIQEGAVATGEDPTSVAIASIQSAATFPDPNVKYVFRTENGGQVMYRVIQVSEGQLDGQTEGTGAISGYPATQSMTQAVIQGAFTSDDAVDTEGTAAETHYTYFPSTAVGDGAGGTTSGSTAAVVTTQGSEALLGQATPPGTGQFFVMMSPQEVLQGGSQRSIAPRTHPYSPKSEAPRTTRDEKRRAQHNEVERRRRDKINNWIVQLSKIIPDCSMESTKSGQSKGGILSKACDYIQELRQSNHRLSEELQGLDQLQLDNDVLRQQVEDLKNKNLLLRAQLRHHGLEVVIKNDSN

| USF-dependent FAS promoter activation, luciferase reporter (Fig. 3D) | Substance |
| --- | --- |
| 4 fold | BAF60c-HA (from UniProt Q6STE5 1-483) (natural protein) |
| 4 fold | HA-tagged BAF60c S247D (from UniProt Q6STE5 1-483) (natural protein) |
